Reference: patent US6645762B2, “Synthases” (The Salk Institute for Biological Studies, priority 1998, dated 2003)
Substitutions are numbered along the chain they refer to. Names may count otherwise.

B1: wild-type TEAS: tobacco 5-epi-aristolochene synthase (TEAS) protein, SEQ ID NO:2, Nicotiana tabacum (protein)
chain: MASAAVANYEEEIVRPVADFSPSLWGDQFLSFSIKNQVAEKYAQEIEALKEQTRNMLLATGMKLADTLNLIDTIERLGISYHFEKEIDDILDQIYNQNSNCNDLCTSALQFRLLRQHGFNISPEIFSKFQDENGKFKESLASDVLGLLNLYEASHVRTHADDILEDALAFSTIHLESAAPHLKSPLREQVTHALEQCLHKGVPRVETRFFISSIYDKEQSKNNVLLRFAKLDFNLLQMLHKQELAQVSRWWKDLDFVTTLPYARDRVVECYFWALGVYFEPQYSQARVMLVKTISMISIVDDTFDAYGTVKELEAYTDAIQRWDINEIDRLPDYMKISYKAILDLYKDYEKELSSAGRSHIVCHAIERMKEVVRNYNVESTWFIEGYTPPVSEYLSNALATTTYYYLATTSYLGMKSATEQDFEWLSKNPKILEASVIICRVIDDTATYEVEKSRGQIATGIECCMRDYGISTKEAMAKFQNMAETAWKDINEGLLRPTPVSTEFLTPILNLARIVEVTYIHNLDGYTHPEKVLKPHIINLLVDSIKI
B2: TEAS W273E: TEAS protein in which Trp273 is changed to Glu, SEQ ID NO:4 (protein)
chain: B1 chain with K35D, N55S, M62R, T73I, D89E, W273E, T388M
B3: TEAS Y527F: TEAS protein in which Tyr527 is changed to Phe, SEQ ID NO:8 (protein)
chain: B1 chain with K35D, N55S, M62R, T73I, D89E, T388M, Y527F

Assays:
Assay type in all cases: biochemical
[1] = Diterpene synthase activity assay with radiolabelled GGPP (solvent extraction, scintillation counting, Ag-TLC)
Experimental: (§1) Synthase activity assays were carried out based on the assay described in Vogeli and Chappell, Plant Physiol. 94:1860 (1990) and Vogeli, et al., Plant Physiol. 93:182 (1990). In general, radio-labeled (^3H or ^14C) substrate was incubated with enzyme at room temperature in a buffered magnesium salt solution (200 mM Tris, pH 8, 50 mM Mg chloride, 1 mM DTT, unless otherwise noted); hydrocarbon products were then selectively extracted into an organic solvent such as hexane. The hexane extract generally was treated with silica gel to remove prenyl alcohols and other oxygenated compounds generated by non-enzymatic hydrolysis of substrate, which partition inefficiently into hexane. Hydrocarbon products present in the hexane phase were quantitated by scintillation counting.
A subsequent extraction with a more polar organic solvent such as ethyl acetate was sometimes carried out. Oxygenated compounds more efficiently partition into ethyl acetate-type solvents. Compounds present in the ethyl acetate phase were also quantitated by scintillation counting.
(§2) Substrate concentrations typically ranged from 0.1 nanomolar to 100 micromolar. In some assays, the substrate was not radiolabeled. Reactions generally were carried out in triplicate for each substrate concentration. Protein concentration was determined by the Bradford method. For determination of steady-state kinetic parameters, enzyme concentrations were chosen such that generation of products over time was linear throughout the course of the reaction.
(§3) Diterpene synthase assays typically were carried out using ^3H geranylgeranyl diphosphate (GGPP) and enzyme in 250 mM Tris, 10 mM Mg chloride, 1 mM DTT, pH 8.0. Sesquiterpene synthase assays typically were carried out using ^14C or ^3H FPP and enzyme in 100 mM Tris, 30 mM Mg chloride, 1 mM DTT, pH 8.0. Monoterpene synthase assays typically were carried out using ^3H GPP and enzyme. As a control for nonspecific binding of GPP by protein, identical reactions were set up which contained BSA, rather than enzyme.
(§4) Terpenoid hydrocarbon products are not readily separated by thin layer chromatography on normal or reverse-phase plates; however, some can be separated by argentation TLC (Ag-TLC), in which silica plates are first treated with silver nitrate. Ag-TLC described here generally followed the procedure described by Back et al., Arch. Biochem. Biophys. 315:527 (1994). A silica TLC plate was dipped in 15% silver nitrate (aqueous), then dried for 3-5 hours at 110° C. After spotting of tritiated enzymatic products (solvent extract), the plate was developed in benzene:hexane, ethyl acetate (50:50:1, by volume), sprayed with En^3Hance (NEN) fluorography spray, placed on film, and exposed for several days to several weeks. Long exposure times were generally necessary, as silver-nitrate treatment of the TLC plate appeared to cause quenching of the fluorography reagents fluorescence. Alternatively, ^14C labelled products were detected after one to two days without the use of fluorography spray.
The TEAS W273S enzyme and radiolabelled GGPP were incubated as described above and hydrocarbon products were extracted with hexane. Oxygenated products were then extracted with ethyl acetate.
The mutant TEAS C440W1W273S protein contains a tryptophan residue at position 440 and a serine residue at position 273. Assays with GGPP were carried out using 0.5 micromolar ^3H GGPP, various concentrations of unlabelled GGPP (Echelon), and enzyme. Reactions were incubated for 60 minutes at room temperature. […] Hexane-extractable products of GGPP turnover by the double mutant were analyzed by Ag-TLC. The products included two species (Rf=0.11 and 0.28) that were distinct from the hydrolysis product geranyl geraniol (Rf=0.0).To verify that products generated by TEAS C440W/W273S from GGPP were not the hydrolysis product, geranylgeraniol, a sample was analyzed by Ag-TLC. […]

[2] = Alkylation of enzyme by radiolabeled FPP; conditions: dependent upon the presence of MgCl2
Experimental: Reactions to determine the products made by TEAS W273E using FPP as substrate were carried out essentially as described above, using radioiabeled FPP. […] The alkylation was dependent upon the presence of MgCl2 in the reaction mixture. In control experiments, boiled W273E-TEAS, as well as wild-type TEAS and BSA, were not alkylated.

[3] = Sesquiterpene synthase activity assay with radiolabelled FPP (Ag-TLC and GC/MS product analysis); conditions: radiolabelled FPP; FIG. 4
Experimental: as §1, §2, §3, §4
Products of FPP turnover by the purified TEAS W273S mutant were analyzed by argentation thin-layer chromatography (Ag-TLC).
Reactions with FPP as substrate were carded out with ^14C FPP (9 μm) and enzyme (160 μm) in reaction buffer (20 μl). After incubating for 30 minutes at room temperature, products made by TEAS C440W/W273S were analyzed by Ag-TLC. […] The new product was distinct from both 5-epi-aristolochene and vetispiradiene. Several other products were also formed, many of which migrated slowly upon argentation TLC.
Reactions with radiolabeled FPP and TEAS Y520F enzyme were carried out essentially as described above. Reaction products were analysed by Ag-TLC and by GC/MS.

[4] = Monoterpene synthase activity assay with GPP; conditions: crude extract of enzyme from E. coli
Experimental: as §1, §3
A crude extract of TEAS Y527F enzyme was made by inducing expression in E. coli cells, and sonicating the cells. […]

Molecule | conversion of GGPP to hexane-extractable products ([1]; 0.5 micromolar 3H GGPP plus unlabelled GGPP, 60 minutes at room temperature) | counts in hexane and ethyl acetate extracts after incubation with radiolabelled GGPP ([1]; hydrocarbon products extracted with hexane, oxygenated products with ethyl acetate, compared with buffer alone) | alkylation of the enzyme by FPP [2] | products of FPP turnover, analyzed by Ag-TLC [3] | products formed with GPP as a substrate (monoterpene synthase activity) [4]
B1 | did not | counts lower than buffer alone | not alkylated |  | 
B2 |  |  | alkylation of TEAS by FPP had occurred | at least one product other than 5-epi-aristolochene was formed | 
B3 |  |  |  | products other than 5-epi-aristolochene were generated | No products were observed
